Reference: patent publication US20060051832A1, “Modified sarcosine oxidase, process for producing the same and reagent composition using the same” (Toyo Boseki Kabushiki Kaisha, priority 2002, published 2006)

Experiments:
[1] = test system: Arthrobacter sp. TE1826 modified sarcosine oxidases of Example 3B (SEQ ID NO:1 variants); assay: Km of modified sarcosine oxidases of Example 3B compared with unmodified; assay type: biochemical; conditions: modified vs unmodified; nearly equal to or within 1.5 times
Experimental: (§1) • 100 mM Tris-HCl buffer (pH 8.0) (containing 200 mM sarcosine and 0.1% Triton X-100) • 0.1% 4-aminoantipyrine • 0.1% phenol • 25 U/mL peroxidase <Measurement Condition>
(§2) A reaction mixture is prepared by mixing the above Tris-HCl buffer, 4-aminoantipyrine solution, phenol solution and peroxidase solution at a ratio of 5:1:2:2. The reaction mixture (1 mL) is taken to a test tube, preliminarily warmed at 37° C. for about 5 min, and 0.05 mL of an enzyme solution is added to start the reaction. The reaction at 37° C. is performed accurately for 10 min, then 2.0 mL of an aqueous solution of 0.25% SDS is added to stop the reaction, and an absorbance at 500 nm of this solution is measured. In a blind test, distilled water instead of the enzyme solution is added to the reagent mixture, and the same manipulation is followed to measure the absorbance. […] The reactivity to proline was measured as a relative ratio of activities when sarcosine in the above reagent was replaced by L-proline at the same concentration.
(§3) Various sarcosine oxidases obtained in Example 3B and Comparative Example 1 were evaluated.
(§4) Action on proline was calculated from a relative ratio (%) of the enzyme activity using L-proline as the substrate to the enzyme activity suing sarcosine as the substrate in the above activity measurement method. […]

[2] = substrate: CNCC(=O)O; assay: Km of modified sarcosine oxidase SAOM3B; assay type: biochemical, Arthrobacter sp. TE1826; conditions: other: SAOM3B, K322R, 37° C., pH 8.0
Experimental: as §1
as §2, with “concentration. […]” for “concentration.”
as §3, §4

[3] = substrate: CNCC(=O)O; assay: Km of modified sarcosine oxidase SAOM4B; assay type: biochemical, Arthrobacter sp. TE1826; conditions: other: SAOM4B, 37° C., pH 8.0
Experimental: as §1
as §2, with “concentration. […]” for “concentration.”
as §3, §4

`CNCC(=O)O` [sarcosine] was tested, and the “Km value for sarcosine relative to the Km value of the unmodified sarcosine oxidase” value [1] was ≤ 1.5 times.

B1: Arthrobacter sp. TE1826 sarcosine oxidase (SEQ ID NO:1) variant SAOM3B, K322R (Arthrobacter sp. TE1826; K322R) (protein)
chain: MSIKKDYDVIVVGAGSMGMAAGYYLSKQGVKTLLVDSFHPPHTNGSHHGDTRIIRHAYGEGREYVPFALRAQELWYELEKETHHKIFTKTGVLVFGPKGEAPFVAETMEAAKEHSLDVDLLEGSEINKRWPGVTVPENYNAIFEKNSGVLFSENCIRAYRELAEANGAKVLTYTPVEDFEIAEDFVKIQTAYGSFTASKLIVSMGAWNSKLLSKLNIEIPLQPYRQVVGFFECDEKKYSNTHGYPAFMVEVPTGIYYGFPSFGGCGLKIGYHTYGQKIDPDTINREFGIYPEDEGNIRKFLETYMPGATGELKSGDVCMYTRTPDEHFVIDLHPQFSNVAIAAGFSGHGFKFSSVVGETLSQLAVTGKTEHDISIFSINRPALKQKETI
Molecule B1 has a Km [2] of 4.7 mM mM.

B2: Arthrobacter sp. TE1826 sarcosine oxidase (SEQ ID NO:1) variant SAOM4B, V94G, E250Q (Arthrobacter sp. TE1826; E250Q/V94G) (protein)
chain: MSIKKDYDVIVVGAGSMGMAAGYYLSKQGVKTLLVDSFHPPHTNGSHHGDTRIIRHAYGEGREYVPFALRAQELWYELEKETHHKIFTKTGVLGFGPKGEAPFVAETMEAAKEHSLDVDLLEGSEINKRWPGVTVPENYNAIFEKNSGVLFSENCIRAYRELAEANGAKVLTYTPVEDFEIAEDFVKIQTAYGSFTASKLIVSMGAWNSKLLSKLNIEIPLQPYRQVVGFFECDEKKYSNTHGYPAFMVQVPTGIYYGFPSFGGCGLKIGYHTYGQKIDPDTINREFGIYPEDEGNIRKFLETYMPGATGELKSGDVCMYTKTPDEHFVIDLHPQFSNVAIAAGFSGHGFKFSSVVGETLSQLAVTGKTEHDISIFSINRPALKQKETI
For B2, the Km [3] was 3.4 mM mM.
